Laboratory results as given in patent US20260062456A1 (ALPINE IMMUNE SCIENCES, published 2026).

Molecular target: human PD-1 stably expressed on Jurkat/IL-2 reporter cells (Jurkat/PD-1 cells) (human, UniProt Q15116 25-288)
Assay: flow cytometry, Jurkat/PD-1 cells

Chain of human PD-1 stably expressed on Jurkat/IL-2 reporter cells (Jurkat/PD-1 cells) (Q15116 25-288): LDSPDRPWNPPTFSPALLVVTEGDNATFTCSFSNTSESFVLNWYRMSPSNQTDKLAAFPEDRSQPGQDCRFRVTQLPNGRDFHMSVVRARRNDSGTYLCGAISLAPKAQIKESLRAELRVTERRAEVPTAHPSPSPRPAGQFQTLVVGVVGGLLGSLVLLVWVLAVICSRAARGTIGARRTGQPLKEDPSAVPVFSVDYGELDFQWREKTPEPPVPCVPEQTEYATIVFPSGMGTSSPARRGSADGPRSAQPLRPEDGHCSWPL

Row | Binder | Fold Increase over WT PD-L1 ECD-Fc [fold] | MFI at 20 nM conc. [MFI]
1 | variant PD-L1 ECD-Fc E27D, N45D, T183A, I188V (Fc fusion, not shown: a dimerising Fc or GST) FTVTVPKDLYVVEYGSNMTIECKFPVDKQLDLAALIVYWEMEDKDIIQFVHGEEDLKVQHSSYRQRARLLKDQLSLGNAALQITDVKLQDAGVYRCMISYGGADYKRITVKVNAPYNKINQRILVVDPVTSEHELTCQAEGYPKAEVIWTSSDHQVLSGKTTTTNSKREEKLFNVTSTLRINATTNEVFYCTFRRLDPEENHTAELVIPELPLAHPPNER | 26.6 | 133000
2 | variant PD-L1 ECD-Fc K28R, N45D, V129D, T163N, R195T (Fc fusion, not shown: a dimerising Fc or GST) FTVTVPKDLYVVEYGSNMTIECKFPVERQLDLAALIVYWEMEDKDIIQFVHGEEDLKVQHSSYRQRARLLKDQLSLGNAALQITDVKLQDAGVYRCMISYGGADYKRITVKVNAPYNKINQRILVVDPDTSEHELTCQAEGYPKAEVIWTSSDHQVLSGKTTNTNSKREEKLFNVTSTLRINTTTNEIFYCTFRTLDPEENHTAELVIPELPLAHPPNER | 27.4 | 137000
3 | variant PD-L1 ECD-Fc M41K, D43G, N45D, R64S, R195G (Fc fusion, not shown: a dimerising Fc or GST) FTVTVPKDLYVVEYGSNMTIECKFPVEKQLDLAALIVYWEKEGKDIIQFVHGEEDLKVQHSSYSQRARLLKDQLSLGNAALQITDVKLQDAGVYRCMISYGGADYKRITVKVNAPYNKINQRILVVDPVTSEHELTCQAEGYPKAEVIWTSSDHQVLSGKTTTTNSKREEKLFNVTSTLRINTTTNEIFYCTFRGLDPEENHTAELVIPELPLAHPPNER | 27.4 | 137000
4 | variant PD-L1 ECD-Fc M41K, D43G, K44E, N45D, R195G, N201D (Fc fusion, not shown: a dimerising Fc or GST) FTVTVPKDLYVVEYGSNMTIECKFPVEKQLDLAALIVYWEKEGEDIIQFVHGEEDLKVQHSSYRQRARLLKDQLSLGNAALQITDVKLQDAGVYRCMISYGGADYKRITVKVNAPYNKINQRILVVDPVTSEHELTCQAEGYPKAEVIWTSSDHQVLSGKTTTTNSKREEKLFNVTSTLRINTTTNEIFYCTFRGLDPEEDHTAELVIPELPLAHPPNER | 28.9 | 145000
5 | variant PD-L1 ECD-Fc I98T, F173Y, L196S (Fc fusion, not shown: a dimerising Fc or GST) FTVTVPKDLYVVEYGSNMTIECKFPVEKQLDLAALIVYWEMEDKNIIQFVHGEEDLKVQHSSYRQRARLLKDQLSLGNAALQITDVKLQDAGVYRCMTSYGGADYKRITVKVNAPYNKINQRILVVDPVTSEHELTCQAEGYPKAEVIWTSSDHQVLSGKTTTTNSKREEKLYNVTSTLRINTTTNEIFYCTFRRSDPEENHTAELVIPELPLAHPPNER | 0 | 236
6 | variant PD-L1 ECD-Fc K28E, N45D, W149R, S158G, P198T (Fc fusion, not shown: a dimerising Fc or GST) FTVTVPKDLYVVEYGSNMTIECKFPVEEQLDLAALIVYWEMEDKDIIQFVHGEEDLKVQHSSYRQRARLLKDQLSLGNAALQITDVKLQDAGVYRCMISYGGADYKRITVKVNAPYNKINQRILVVDPVTSEHELTCQAEGYPKAEVIRTSSDHQVLGGKTTTTNSKREEKLFNVTSTLRINTTTNEIFYCTFRRLDTEENHTAELVIPELPLAHPPNER | 0.1 | 691
7 | variant PD-L1 ECD-Fc N45D, F173I, S177C (Fc fusion, not shown: a dimerising Fc or GST) FTVTVPKDLYVVEYGSNMTIECKFPVEKQLDLAALIVYWEMEDKDIIQFVHGEEDLKVQHSSYRQRARLLKDQLSLGNAALQITDVKLQDAGVYRCMISYGGADYKRITVKVNAPYNKINQRILVVDPVTSEHELTCQAEGYPKAEVIWTSSDHQVLSGKTTTTNSKREEKLINVTCTLRINTTTNEIFYCTFRRLDPEENHTAELVIPELPLAHPPNER | 0.4 | 2200
8 | variant PD-L1 ECD-Fc K23N, N45D, Q73R, T163I (Fc fusion, not shown: a dimerising Fc or GST) FTVTVPKDLYVVEYGSNMTIECNFPVEKQLDLAALIVYWEMEDKDIIQFVHGEEDLKVQHSSYRQRARLLKDRLSLGNAALQITDVKLQDAGVYRCMISYGGADYKRITVKVNAPYNKINQRILVVDPVTSEHELTCQAEGYPKAEVIWTSSDHQVLSGKTTITNSKREEKLFNVTSTLRINTTTNEIFYCTFRRLDPEENHTAELVIPELPLAHPPNER | 27.8 | 139000
9 | variant PD-L1 ECD-Fc N45D, G102D, R194W, R195G (Fc fusion, not shown: a dimerising Fc or GST) FTVTVPKDLYVVEYGSNMTIECKFPVEKQLDLAALIVYWEMEDKDIIQFVHGEEDLKVQHSSYRQRARLLKDQLSLGNAALQITDVKLQDAGVYRCMISYGDADYKRITVKVNAPYNKINQRILVVDPVTSEHELTCQAEGYPKAEVIWTSSDHQVLSGKTTTTNSKREEKLFNVTSTLRINTTTNEIFYCTFWGLDPEENHTAELVIPELPLAHPPNER | 2.7 | 13400
10 | variant PD-L1 ECD-Fc N45D, G52V, Q121L, P198S (Fc fusion, not shown: a dimerising Fc or GST) FTVTVPKDLYVVEYGSNMTIECKFPVEKQLDLAALIVYWEMEDKDIIQFVHVEEDLKVQHSSYRQRARLLKDQLSLGNAALQITDVKLQDAGVYRCMISYGGADYKRITVKVNAPYNKINLRILVVDPVTSEHELTCQAEGYPKAEVIWTSSDHQVLSGKTTTTNSKREEKLFNVTSTLRINTTTNEIFYCTFRRLDSEENHTAELVIPELPLAHPPNER | 0.1 | 296
11 | variant PD-L1 ECD-Fc M41K, D43G, N45D, R64S, S99G (Fc fusion, not shown: a dimerising Fc or GST) FTVTVPKDLYVVEYGSNMTIECKFPVEKQLDLAALIVYWEKEGKDIIQFVHGEEDLKVQHSSYSQRARLLKDQLSLGNAALQITDVKLQDAGVYRCMIGYGGADYKRITVKVNAPYNKINQRILVVDPVTSEHELTCQAEGYPKAEVIWTSSDHQVLSGKTTTTNSKREEKLFNVTSTLRINTTTNEIFYCTFRRLDPEENHTAELVIPELPLAHPPNER | 26.9 | 135000
12 | variant PD-L1 ECD-Fc N45D, E134G, L213P (Fc fusion, not shown: a dimerising Fc or GST) FTVTVPKDLYVVEYGSNMTIECKFPVEKQLDLAALIVYWEMEDKDIIQFVHGEEDLKVQHSSYRQRARLLKDQLSLGNAALQITDVKLQDAGVYRCMISYGGADYKRITVKVNAPYNKINQRILVVDPVTSEHGLTCQAEGYPKAEVIWTSSDHQVLSGKTTTTNSKREEKLFNVTSTLRINTTTNEIFYCTFRRLDPEENHTAELVIPELPPAHPPNER | 0.5 | 2260
13 | variant PD-L1 ECD-Fc K23N, N45D, S75P, N120S (Fc fusion, not shown: a dimerising Fc or GST) FTVTVPKDLYVVEYGSNMTIECNFPVEKQLDLAALIVYWEMEDKDIIQFVHGEEDLKVQHSSYRQRARLLKDQLPLGNAALQITDVKLQDAGVYRCMISYGGADYKRITVKVNAPYNKISQRILVVDPVTSEHELTCQAEGYPKAEVIWTSSDHQVLSGKTTTTNSKREEKLFNVTSTLRINTTTNEIFYCTFRRLDPEENHTAELVIPELPLAHPPNER | 26.4 | 132000

The remaining lines, values ahead:

Row | Fold Increase over WT PD-L1 ECD-Fc [fold] | MFI at 20 nM conc. [MFI] | Binder
14 | 21.8 | 109000 | variant PD-L1 ECD-Fc N45D, I148V, R195G (Fc fusion, not shown: a dimerising Fc or GST) FTVTVPKDLYVVEYGSNMTIECKFPVEKQLDLAALIVYWEMEDKDIIQFVHGEEDLKVQHSSYRQRARLLKDQLSLGNAALQITDVKLQDAGVYRCMISYGGADYKRITVKVNAPYNKINQRILVVDPVTSEHELTCQAEGYPKAEVVWTSSDHQVLSGKTTTTNSKREEKLFNVTSTLRINTTTNEIFYCTFRGLDPEENHTAELVIPELPLAHPPNER
15 | 21.7 | 109000 | variant PD-L1 ECD-Fc N45D, K111T, T183A, I188V (Fc fusion, not shown: a dimerising Fc or GST) FTVTVPKDLYVVEYGSNMTIECKFPVEKQLDLAALIVYWEMEDKDIIQFVHGEEDLKVQHSSYRQRARLLKDQLSLGNAALQITDVKLQDAGVYRCMISYGGADYKRITVTVNAPYNKINQRILVVDPVTSEHELTCQAEGYPKAEVIWTSSDHQVLSGKTTTTNSKREEKLFNVTSTLRINATTNEVFYCTFRRLDPEENHTAELVIPELPLAHPPNER
16 | 26.1 | 131000 | variant PD-L1 ECD-Fc N45D, I148V, R195G, N201D (Fc fusion, not shown: a dimerising Fc or GST) FTVTVPKDLYVVEYGSNMTIECKFPVEKQLDLAALIVYWEMEDKDIIQFVHGEEDLKVQHSSYRQRARLLKDQLSLGNAALQITDVKLQDAGVYRCMISYGGADYKRITVKVNAPYNKINQRILVVDPVTSEHELTCQAEGYPKAEVVWTSSDHQVLSGKTTTTNSKREEKLFNVTSTLRINTTTNEIFYCTFRGLDPEEDHTAELVIPELPLAHPPNER
17 | 22.4 | 112000 | variant PD-L1 ECD-Fc N45D, N113Y, R195S (Fc fusion, not shown: a dimerising Fc or GST) FTVTVPKDLYVVEYGSNMTIECKFPVEKQLDLAALIVYWEMEDKDIIQFVHGEEDLKVQHSSYRQRARLLKDQLSLGNAALQITDVKLQDAGVYRCMISYGGADYKRITVKVYAPYNKINQRILVVDPVTSEHELTCQAEGYPKAEVIWTSSDHQVLSGKTTTTNSKREEKLFNVTSTLRINTTTNEIFYCTFRSLDPEENHTAELVIPELPLAHPPNER
18 | 17.8 | 89000 | variant PD-L1 ECD-Fc N45D, N165Y, E170G (Fc fusion, not shown: a dimerising Fc or GST) FTVTVPKDLYVVEYGSNMTIECKFPVEKQLDLAALIVYWEMEDKDIIQFVHGEEDLKVQHSSYRQRARLLKDQLSLGNAALQITDVKLQDAGVYRCMISYGGADYKRITVKVNAPYNKINQRILVVDPVTSEHELTCQAEGYPKAEVIWTSSDHQVLSGKTTTTYSKREGKLFNVTSTLRINTTTNEIFYCTFRRLDPEENHTAELVIPELPLAHPPNER
19 | 11.8 | 59300 | variant PD-L1 ECD-Fc N45D, R68L, F173L, D197G, P198S (Fc fusion, not shown: a dimerising Fc or GST) FTVTVPKDLYVVEYGSNMTIECKFPVEKQLDLAALIVYWEMEDKDIIQFVHGEEDLKVQHSSYRQRALLLKDQLSLGNAALQITDVKLQDAGVYRCMISYGGADYKRITVKVNAPYNKINQRILVVDPVTSEHELTCQAEGYPKAEVIWTSSDHQVLSGKTTTTNSKREEKLLNVTSTLRINTTTNEIFYCTFRRLGSEENHTAELVIPELPLAHPPNER
20 | 18.1 | 90500 | variant PD-L1 ECD-Fc N45D, Q89R, I98V (Fc fusion, not shown: a dimerising Fc or GST) FTVTVPKDLYVVEYGSNMTIECKFPVEKQLDLAALIVYWEMEDKDIIQFVHGEEDLKVQHSSYRQRARLLKDQLSLGNAALQITDVKLRDAGVYRCMVSYGGADYKRITVKVNAPYNKINQRILVVDPVTSEHELTCQAEGYPKAEVIWTSSDHQVLSGKTTTTNSKREEKLFNVTSTLRINTTTNEIFYCTFRRLDPEENHTAELVIPELPLAHPPNER
21 | 13.1 | 65700 | variant PD-L1 ECD-Fc N45D, K111T, R195G (Fc fusion, not shown: a dimerising Fc or GST) FTVTVPKDLYVVEYGSNMTIECKFPVEKQLDLAALIVYWEMEDKDIIQFVHGEEDLKVQHSSYRQRARLLKDQLSLGNAALQITDVKLQDAGVYRCMISYGGADYKRITVTVNAPYNKINQRILVVDPVTSEHELTCQAEGYPKAEVIWTSSDHQVLSGKTTTTNSKREEKLFNVTSTLRINTTTNEIFYCTFRGLDPEENHTAELVIPELPLAHPPNER
